# Data from the DeepSol protein solubility set.
# Assay: soluble on expression in E. coli; label from the status in PepcDB or PDB records
row,Sequence,soluble on expression in E. coli
1,MAFADIVRSVENRTNAATLNWSIKNGWKPEVTGFSGYGSGRRVRVLARVLMSNPENLLVDAPSQSITQQAQRGWRQFFTIQVPNLPVTVTVGGKTVTSSTNDNGYVDLLVEDHNLDPGWHTIQIQAEGSTPAEARVLIVENTARIGLISDIDDTIMVTWLPRALLAAWNSWVLHTKTRKPVPGMNRFYEELLKDHPDAPVFYLSTGAWNTFETLQEFINKHALPDGPMLLTDWGPTPTGLFRSGQEHKKVQLRNLFIEYPDMKWILVGDDGQHDPLIYGEAVEEHPNRIAGVAIRELSPGEHVLSHGTTASLSTITTNGGQGVPVVHGRDGYELLQRYETKPFALEHHHHHH,soluble
2,MAFISFRDFMEKAVKDYYSSQRALKDFFTAPELDRAFGEALAEFFSQHLSEFERPALVELGAGRGLLAYDILNYYRANYPDLFNRLKYYIYEFSPYLISKQREVLKNFKNVEWVEELPKVEGIVFSNEFFDALPVHIVKGGKELYVDEKGSEVWLSLENEKVKEFLRRMNYENLNQIVEVCLDCIDMLKKISESLVEGYHFVIDYGYTSEEITKYPEGTVVAYKEHKVVKDFLKEAGNADITAHVNFSALMEYGRDFGLETILFQSQRDFLMHIPTFLNELEKLSWEESAESVERLSRLKTMLISMGDRFKVLLQRKLSQLEHHHHHH,not soluble
3,MAFLLKLEPDMQGKVDLFRARIAQEAEDLVSTFFPQKVLELNSRVQELRLQDLSRIHSVPTSEPLATPGNKGDGPNQNLPVLLTQFSIKVPALLGSEGQLLRSNQHLVELTEWVKPEIKLLREKCNTVHM,not soluble
4,MAFSGSQAPYLSPAVPFSGTIQGGLQDGLQITVNGTVLSSSGTRFAVNFQTGFSGNDIAFHFNPRFEDGGYVVCNTRQNGSWGPEERKTHMPFQKGMPFDLCFLVQSSDFKVMVNGILFVQYFHRVPFHRVDTISVNGSVQLSYISFQNPRTVPVQPAFSTVPFSQPVCFPPRPRGRRQKPPGVWPANPAPITQTVIHTVQSAPGQMFSTPAIPPMMYPHPAYPMPFITTILGGLYPSKSILLSGTVLPSAQRFHINLCSGNHIAFHLNPRFDENAVVRNTQIDNSWGSEERSLPRKMPFVRGQSFSVWILCEAHCLKVAVDGQHLFEYYHRLRNLPTINRLEVGGDIQLTHVQT,soluble
5,MAGAKHIIDTSFLTQLDRYAIPLSRRVTAVHTGSHQSTRTGAGLDIIDHRKYNQGDSLKRIDWNLYARTEKLYIRRFEEDKNLNMVILLDASSSMLFPDNTPNKFEYAATVAAGVSYIVMKHNDVYTIATFADDVDYTKSHKGRDDFLRTIDNLTQIPVSGTTKLADCADSIYPRIKSKSMVLIMSDFLDNLDSVQKAVNRLSRHELVIVHIYDENEINLPESVDGTVKFIDSETGEEISFTVGAGFKKEYASEYSKHMAELEKIAYDFKIPYFRVSIKNEPFDTVLKIIGEG,not soluble
6,MAGATDQRRQEVLRAIVADYIASQEPVGSKALLERHNLKVSSATIRNDMAVLESEGYIVQQHASSGRIPTEKAYRTFVDSINDIKPLSVAERRAILGFLERGVDLEDVLKRSVQLLSQLTRQAAVIQLPNLNVSRVKHCEVVLLSPVRLLLVLITDNGRVEQRNVEVDQICEPEHVAKMRDVLNRALDNKTLSDASASLAELAAGEILVDPDIQPMILRCATVLIETLVEQPNDRLILAGASNLTHIAREMPSSLPAMLEALEEQVVVLKLLTNVRDLGHVSVLIGEENEDEQLRGTSVVTTGYGAQGATLGGLGVVGPTFMDYSGTMSKVYAVAHYVSRVLSGG,not soluble
7,MAGDPMDKNKLFFIETWGCQMNAEDSEKLAGMLKEMKYEATDNREDADLIIFNTCCVRENAELKVYGNLGTLKKLKDKKPNLIITVCGCMMQQRDMAEHIKKRFPFVDIVMGTHNTQMFPQYLKKVENERTSVVEIWDKEEGIVEGMPIYRSYDMKAFVTIMYGCNNFCTYCIVPYVRGRERSRKPEDIENEIKELVKKGYKEITLLGQNVNSYGKSLDEEMNFALLLRRLNNIEGLLRIRFMTSHPKDLTDDVIAAIADCDKVCEHIHLPVQSGSTTILNKMNRNYTREDYINLVNKIKSGIKNVAITTDIIVGFPGETEEDFEDTLSLVKEVEYDSAFTFLYSIREGTPAAKYENQIPDEVKHKRFNKLLEAVNLISEKKNKEYEGKIVEILVEGKSKNDGSKLMGRTRTGKLVNFEGLESSIGKLINVKITKAQAFSLVGEEVLEHHHHHH,not soluble
8,MAGDPMKAREVEFEGHLIDSMIFTKALDIILDLDGEFEILEFRVGKKKDDPSYARMIVFGRDDAHLEQILKELHKIGARIPDIEEVELAEAPADKVLPDGFYVTTNHPTFVRYGGEWLPVEDISMDRVIVIRDGRAYCIPIDEVVRGDRVVVGEKGVRVVPPERPRKSTVFEFMGGRVSSERPTERMIEAIAREIYELKLKGGKIAVVAGPAVDHTSARNALAALIRDGYVDLLLSGNALAVHDIEISIFGTSLGMDICKGRPVPGGNRHHLYTISKVIAAGGIKKAIEKGIIKDGIMYECVKNNVPFILAGSIRDDGPLPEVITDVMVAKKKMKEALRGINMVIMLATMLHSIAVGNLLPSYVKTICVDMNPSTVTKLMDRGTHQAIGVVTDVGLFLPLLYLKIKEIEAKELEHHHHHH,soluble
9,MAGDPMKKTILLTMTTLTLFSMSPNSAQAYTNDSKTLEEAKKAHPNAQFKVNKDTGAYTYTYDKNNTPNNNHQNQSRTNDNHQHANQRDLNNNQYHSSLSGQYTHINDAIDSHTPPQTSPSNPLTPAIPNVEDNDDELNNAFSKDNKGLITGIDLDELYDELQIAEFNDKAKTADGKPLALGNGKIIDQPLITSKNNLYTAGQCTWYVFDKRAKDGHTISTFWGDAKNWAGQASSNGFKVDRHPTRGSILQTVNGPFGHVAYVEKVNIDGSILISEMNWIGEYIVSSRTISASEVSSYNYIHLEHHHHHH,not soluble
10,MAGDPMKQFAQTYYLLQFIICLICLSISCGEGGNDNYSETNDERNKEPEITVSPITNLEAKSTQIANQLLITWQNPNTPNLLGVELSYLQKNGGTHNGKQIIQGAAGKTGNYTLQLPQYGTYEISAIAIDNYGHRSSAVTVIATPAETTVPFSWATLADSCTYVLIEQFMNKSKGTFWSTPKDMSDESTYIYWQQAHAMDVVIYSYKRIKDTNKQLAATYRTYFERWYANHANNYHRNPSDETGFLNDFTDDMCWICLTLIHLSEATGDEKFAQTAKIVYDKYIITRAWTDDKGTGLPWNTTQNDRNACTNSPGCLVAAKLYQRYEDGNYLSDAKKLYEYVVNNSYNADGRVEEPPLTYTQGTFGEACRQLYHITQESKYMDKAKQVINYAATSDRCLRNGILRDEGSSMDQSIFKSVYIPYAVNLALDEASSSIGKHLITFLKNNAETLRMNLNHAAYPAMYCNYWWGEMWKSSEPASMGAQVSGASLMEGIARLEAAALEHHHHHH,not soluble
11,MAGDPMNEQSQAKSPDTLRAMVAGTLANFQHPTLKHNLTTLKALHHVAWMDDTLHVELVMPFVWNSAFEVLKEQCSADLLRITGAKAIDWKLSYNIATLKRVKNQPGINGVKNIIAVSSGKGGVGKSSTAVNLALALAAEGAKVGVLDADIYGPSIPTMLGAEDQRPTSPDGTHMAPIMSHGLATNSIGYLVTDDNAMVWRGPMASKALMQMLQETLWPDLDYLVLDMPPGTGDIQLTLAQNIPVTGAVVVTTPQDIALIDAKKGIVMFEKVEVPVLGIVENMSMHICSNCGHHEPIFGTGGAQKLAEKYHTQLLGQMPLHISLREDLDRGTPTVVSRPESEFTAIYRELADRVAAQLYWQGEVIPGEIAFRAVLEHHHHHH,soluble
12,MAGDQELELRFDVPLYTLAEASRYLVVPRATLATWADGYERRPANAPAVQGQPIITALPHPTGSHARLPFVGIAEAYVLNAFRRAGVPMQRIRPSLDWLIKNVGPHALASQDLCTDGAEVLWRFAERSGEGSPDDLVVRGLIVPRSGQYVFKEIVEHYLQQISFADDNLASMIRLPQYGDANVVLDPRRGYGQPVFDGSGVRVADVLGPLRAGATFQAVADDYGVTPDQLRDALDAIAA,soluble
13,MAGEKFQKKGKEKWKEKVWYTVEAPPYLGSKEVSVALGEDSNSMVNRVVEVPISELTGNFKKSNEKALFRITNCEGTKCKTIFIGHYIGDDYIRRLVRRRKERIDIIEDVKTSDNSIITVKIVVVTDGKVTNTKKFQIRKVLTDFILNKGLSLPYSEFVRYLIGDDIYNDMISATKDIYPLKKIEVRKSELVSLSGISEIHAGSQLEHHHHHH,soluble
14,MAGGEDRGDGEPVSVVTVRVQYLEDTDPFASANFPEPRRAPTCSLDGALPLGAQIPAVHRLLGAPLKLEDSALQVSPSGYYLDTELSLEEQREMLEGFYEEISKGRKPTLILRTQLSVRVNAILEKLYSSSGPELRRSLFSLKQIFQEDKDLVPEFVHSEGLSCLIRVGAAADHNYQSYILRALGQLMLFVDGMLGVVAHSDTIQWLYTLCASLSRLVVKTALKLLLVFVEYSENNAPLFIRAVNSVASTTGAPPWANLVSILEEKNGADPELLVYTVTLINKTLAALPDQDSFYDVTDALEQQGMEALVQRHLGTAGTDVDLRTQLVLYENALKLEDG,soluble
15,MAGRKSSRTAERVPTTQKPERKSAILSPHDELRERLLETAIDMKENIPQRNTRNSSVGSQKSDCSETRKRRSTKEGPAAKRHSGEKHRNGSREDSLEYISDDREVGSSSSQSSRTRGQPLPAMPEEEEVFDKSSSSDNLAESEESHEMVRLEERQDIEEEIEDDFDDEEEDVVNDKEEYEEIESEDEDDYPVQNEGFAVTKRLMNDEHMVTAPTFLSTAKCDGIGSPTKVWSLMVKRDEIPRATRFLLGNHPDMDDEKRRILIDWMMEVCESEKLHRETFHLAVDYVDRYLESSNVECSTDNFQLVGTAALFIAAKYEEIYPPKCIDFAHLTDSAFTCDNIRTMEVLIVKYIGWSLGPITSIQWLSTYLQLLGTGKKNKSDHYEEQNMYVPELLRSEYLEMCKILDFLLFEIDSFTFSYRTIAAAVLFVNYEPTCAVEKATGFMQAQLEKVIEYVEPVCRAFAKQRQLLDDVIPKHESIKSDDSHNIQVYVKRSSMEPIVKSERERIQHLKARRLHPQRLF,not soluble
16,MAHERAGQLAQPQDLIDIAEVVTAYYTRTPDADNPDQQVAFGTSGHRGSSLDTAFNENHILAITQAIVEYRAQHHIGGPIFIGRDTHALSEPAMISALEVLLAHGIEVLVDDRGRYTPTPAVSHAILAYNAQRSDSSQYSDGIVITPSHNPPRDGGFKYNPPNGGPADTDATDWIADRANTLLREGLVSVKRTSVTGVLDPRAHRHNYMENYIADLPNVVDIDAIRNSGLAIGADPMGGASVDYWGAIAEKHSLNLTVVNPLVDATWRFMTLDTDGKIRMDCSSPDSMASLVHNRTKYDIATGNDADADRHGIVTPDAGLMNPNHYLAVAIDYLFSHRPQWNSSTAVGKTLVSSSMIDRVVADLGRKLVEVPVGFKWFVPGLVDGSVGFGGEESAGASFLRHNGTVWSTDKDGIILDLLASEITAVTGKTPSQRYEELAARFGSPAYARTDAPATREQKAVLKKLSPEQVTATELAGEAITAKLTTAPGNGAAIGGLKVTTENAWFAARPSGTEDKYKIYAESFLGADHLAMVQREAQNLVSDVL,not soluble
17,MAHHHHHHMAKERNLDLKALQRSKRTVAHAYDAGVRSVPPALPLDIGGALAQVLTTRVTTCFGLHLIVTAQNEDAEQQSAPSLLMDVAVRAHLERLPLPVLHRLISDLCEVRAAWKRDLLAPSAAAAVQEQALLGRESINALLYHVCLWQRRYPLELLSAVLSFYDEHKHLFSPATSERCSASVQLESLLEEVQCLQYPDLSDVPGLIRCDVFMTYPHMPLGEQRQLMHTIAAAVVHRKAAGGLQRQSSCMGTEEKYVTDNLLRHSRTPPDPRLLLRSFVVDGAAAIPERFCTDMPTQTYHEMRAAFERHKHDGVRRLAAQDYGQAVTELTPPPPPPPPQPAASSVPSS,not soluble
18,MAHHHHHHMASVDTQWAIKSILQLGHHHLRHGAETTSSSSSCLVRPTSPPFRSASKAVQVTAMPRLMRASCDPSYVILLAKRPSGIAGVSLRPGNRVPWTGLPAAASSLVSAPCSKKTRLLASYLQRRGFATIRPVATDTHSSPSQFRPVQRSMPLLLHTSHLIGWKLNDASPAFPVYAHTLAELQQLRSSDVAALKPQHCLIANEYCEWDNWREVLGEPGWDLFSADEDAVERLLQDGLAISALEEEAGLYPVEVL,not soluble
